Data from article PMC4984425.
Values belong to the molecule of their own block, whether it stands above or below them.

Experiments:
[1] = biological target: FITC-labeled PDIA6 (mouse) (UniProt Q922R8); experiment: MST
[2] = biological target: His-tagged IRE1α ER luminal domain (IRE1-NLD); experiment: SPR

- Kd [1]: 20 nM
Molecule: His-tagged IRE1α ER luminal domain (IRE1-NLD) (domain or fragment)

- Kd [2]: 22 nM
B1: PDIA6 isolated from mouse liver microsomal fraction (natural protein)
chain: LYSSSDDVIELTPSNFNREVIQSDGLWLVEFYAPWCGHCQRLTPEWKKAATALKDVVKVGAVNADKHQSLGGQYGVQGFPTIKIFGANKNKPEDYQGGRTGEAIVDAALSALRQLVKDRLGGRSGGYSSGKQGRGDSSSKKDVVELTDDTFDKNVLDSEDVWMVEFYAPWCGHCKNLEPEWAAAATEVKEQTKGKVKLAAVDATVNQVLASRYGIKGFPTIKIFQKGESPVDYDGGRTRSDIVSRALDLFSDNAPPPELLEIINEDIAKKTCEEHQLCVVAVLPHILDTGAAGRNSYLEVLLKLADKYKKKMWGWLWTEAGAQYELENALGIGGFGYPAMAAINARKMKFALLKGSFSEQGINEFLRELSFGRGSTAPVGGGSFPTITPREPWDGKDGELPVEDDIDLSDVELDDLEKDEL
